The values that follow come from patent US20090175847A1.

Assay [1] has as its target Aβ(1-42) globulomer (human) (UniProt P05067). Briefly: dot blot densitometry; antigen: Aβ(1-42) globulomer.
In assay [2] the target is Aβ(1-42) monomer (human). The assay can be described thus: dot blot densitometry; antigen: Aβ(1-42) monomer, 0.1% NaOH.
Assay [3] concerns the target Aβ(1-42) monomer (human). The assay can be described thus: dot blot densitometry; antigen: Aβ(1-42) monomer, 0.1% NH4OH.
Assay [4] has as its target Aβ(1-42) fibrils (human) (UniProt P05067). Briefly: co-pelleting with Aβ(1-42) fibrils (20 h, 37 °C), SDS-PAGE, densitometry of the antibody heavy chain in pellet and supernatant.

Sequence of Aβ(1-42) fibrils (human) (P05067 672-713 limits assumed): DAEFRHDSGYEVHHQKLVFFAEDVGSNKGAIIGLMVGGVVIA
Sequence of Aβ(1-42) monomer (human) (peptide, as listed by the source): as the sequence (P05067 672-713 limits assumed) above
Sequence of Aβ(1-42) globulomer (human) (P05067 672-713 limits assumed): as above

Turning to “mouse monoclonal antibody 6E10 (Signet No 9320)”, the relation between recognition of Aβ(20-42) globulomer and the respective Aβ form in assay [1] worked out at 0.02; in assay [2], 1; in assay [3] it was 1. Moreover, the antibody bound to fibrils [%] in assay [4] came to 91%.
Regarding “IgG2a antibody isotype control made against KLH (Keyhole Limpet Hemocyanin)”, in assay [4], the antibody bound to fibrils [%] worked out at 9%.
